Laboratory results as given in patent US20100040637A1.

Biological target: human prominin-1 (CD133) (human) (UniProt O43490)
Assay: cell-based or functional assay

UniProt O43490, sequence (O43490 20-865): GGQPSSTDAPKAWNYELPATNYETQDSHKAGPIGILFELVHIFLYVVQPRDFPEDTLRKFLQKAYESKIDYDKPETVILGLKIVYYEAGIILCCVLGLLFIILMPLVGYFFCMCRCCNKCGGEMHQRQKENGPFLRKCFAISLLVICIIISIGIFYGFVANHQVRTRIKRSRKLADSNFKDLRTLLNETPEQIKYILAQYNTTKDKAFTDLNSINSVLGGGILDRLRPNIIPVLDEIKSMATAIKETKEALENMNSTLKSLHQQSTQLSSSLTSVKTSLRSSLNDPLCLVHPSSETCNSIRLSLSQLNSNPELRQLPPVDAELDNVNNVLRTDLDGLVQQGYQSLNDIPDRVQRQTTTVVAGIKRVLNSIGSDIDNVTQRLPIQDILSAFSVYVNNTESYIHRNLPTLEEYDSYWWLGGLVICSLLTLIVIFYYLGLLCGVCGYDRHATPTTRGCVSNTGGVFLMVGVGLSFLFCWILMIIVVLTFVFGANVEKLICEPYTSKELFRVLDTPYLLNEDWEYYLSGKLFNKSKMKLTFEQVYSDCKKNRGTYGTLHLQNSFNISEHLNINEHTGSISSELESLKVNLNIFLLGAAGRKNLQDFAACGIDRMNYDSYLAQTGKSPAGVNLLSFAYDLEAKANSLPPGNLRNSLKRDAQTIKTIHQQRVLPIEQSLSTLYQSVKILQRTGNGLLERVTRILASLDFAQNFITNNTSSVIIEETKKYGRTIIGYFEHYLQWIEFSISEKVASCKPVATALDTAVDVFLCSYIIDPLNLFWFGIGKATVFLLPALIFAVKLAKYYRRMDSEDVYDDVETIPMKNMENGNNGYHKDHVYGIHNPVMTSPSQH

IC50, growth inhibition (3H-thymidine) of Caco-2 cells [ng/mL]	Substance	IC50, cytotoxicity (resazurin) on HEK293 cells stably expressing CD133 [ng/mL]	IC50, cytotoxicity (rezasurin dye conversion) in Hep3B cells [nM]	IC50, cytotoxicity assay in Caco-2 cells [ng/mL]
100	AC133-mcMMAF (AC133 conjugated to maleimidocaproyl-MMAF) (antibody)	1	6	–
1000	AC133-vcMMAE (AC133 conjugated to maleimidocaproyl-valine-citrulline-p-aminobenzoyl-MMAE) (antibody)	6	–	–
< 1	AC133-vcMMAF (AC133 conjugated to maleimidocaproyl-valine-citrulline-p-aminobenzoyl-MMAF) (antibody)	1	0.35	3
